# Measurements from patent US20240116985A1 (published 2024).
# Starred links: 1 amine or outer side, 2 acyl side, 3 side chain; linkers in the order of their positions; H or OH if unused. Positions of bridges follow the written chain, without caps; N, C: chain ends. Non-standard residues stand in square brackets, D forms with d. Primed or numbered codes have the meaning given here. *: point of attachment. PyrS2″ = (S)-3-amino-1-((pent-4-en-1-yloxy)carbonyl)pyrrolidine-3-carboxylic acid (stapling residue), C=CCCCOC(=O)N1CC[C@@](N[*:1])(C(=O)[*:2])C1; B5(4) = 2,2-bis(4-pentenyl)glycine = 2-amino-2-(pent-4-en-1-yl)hept-6-enoic acid (stitching residue), C=CCCCC(CCCC=C)(N[*:1])C(=O)[*:2]; TfeGA = (S)-2-amino-3-((carboxymethyl)(2,2,2-trifluoroethyl)amino)propanoic acid, O=C([C@H](CN(CC(=O)[*:3])CC(F)(F)F)N[*:1])[*:2]; PyrS2 = (S)-3-amino-1-((pent-4-en-1-yloxy)carbonyl)pyrrolidine-3-carboxylic acid, C=CCCCOC(=O)N1CC[C@@](N[*:1])(C(=O)[*:2])C1; B5(9) = 2-amino-2-(pent-4-en-1-yl)hept-6-enoic acid (2,2-bis(4-pentenyl)glycine), C=CCCCC(CCCC=C)(N[*:1])C(=O)[*:2]; MorphAsn = (S)-2-amino-4-morpholino-4-oxobutanoic acid, O=C(C[C@H](N[*:1])C(=O)[*:2])N1CCOCC1; Me2Asn = listed as N4-methyl-L-asparagine, CNC(=O)C[C@H](N[*:1])C(=O)[*:2]; 5hexenyl = N-terminal hex-5-enoic acid (acyl cap), C=CCCCC(=O)*; Phe(3-COOH) = N[C@@H](Cc1cccc(C(=O)O)c1)C(=O)O; Phe(2-CF3) = N[C@@H](Cc1ccccc1C(F)(F)F)C(=O)O; d(βAsp) = O=C(O)[C@@H](CC(=O)[*:2])N[*:1]; βAsp = O=C(O)[C@H](CC(=O)[*:2])N[*:1]; Bta = N[C@@H](Cc1csc2ccccc12)C(=O)O; αAllylPro = C=CC[C@@]1(C(=O)O)CCCN1; Morpholinoacetyl = O=C(CN1CCOCC1)*; tBuAla = CC(C)(C)C[C@H](N)C(=O)O; 3Thi = N[C@@H](Cc1ccsc1)C(=O)O; Cha = N[C@@H](CC1CCCCC1)C(=O)O; S8 = C=CCCCCCC[C@](C)(N)C(=O)O; AllylGly = C=CC[C@H](N)C(=O)O; PyrS2(4) = not defined here; 34ClF = not defined here; Nle = CCCC[C@H](N)C(=O)O; Aib = CC(C)(N)C(=O)O
# T1: B-cat-Halo (beta-catenin HaloTag construct expressed in HEK293 cells) (UniProt P35222 1-781)
# T1 sequence (looked up): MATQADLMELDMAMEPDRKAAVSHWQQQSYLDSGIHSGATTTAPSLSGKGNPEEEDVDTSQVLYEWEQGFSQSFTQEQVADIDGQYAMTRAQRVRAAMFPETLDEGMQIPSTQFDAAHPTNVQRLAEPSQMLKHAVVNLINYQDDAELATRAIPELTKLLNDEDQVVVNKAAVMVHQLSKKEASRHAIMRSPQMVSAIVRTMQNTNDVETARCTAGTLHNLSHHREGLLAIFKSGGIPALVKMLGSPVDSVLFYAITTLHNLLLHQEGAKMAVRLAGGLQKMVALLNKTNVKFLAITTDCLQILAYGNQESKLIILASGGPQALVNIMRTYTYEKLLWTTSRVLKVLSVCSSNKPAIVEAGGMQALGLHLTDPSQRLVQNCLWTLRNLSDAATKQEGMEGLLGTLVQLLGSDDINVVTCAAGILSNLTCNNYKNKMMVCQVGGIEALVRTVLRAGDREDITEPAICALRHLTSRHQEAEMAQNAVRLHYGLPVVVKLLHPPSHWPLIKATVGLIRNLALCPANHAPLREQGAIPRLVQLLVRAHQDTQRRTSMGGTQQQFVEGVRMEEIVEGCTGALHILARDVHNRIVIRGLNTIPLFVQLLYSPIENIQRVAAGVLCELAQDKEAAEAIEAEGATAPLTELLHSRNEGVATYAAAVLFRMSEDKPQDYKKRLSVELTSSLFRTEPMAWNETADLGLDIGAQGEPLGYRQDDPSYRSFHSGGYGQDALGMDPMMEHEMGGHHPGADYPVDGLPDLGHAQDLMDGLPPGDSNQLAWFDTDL
# T2: full-length beta-Catenin (Uniprot ID P35222) (Homo sapiens (Human), UniProt P35222 1-781)
# T2 construct: also called bCat; B-Catenin
# T2 sequence: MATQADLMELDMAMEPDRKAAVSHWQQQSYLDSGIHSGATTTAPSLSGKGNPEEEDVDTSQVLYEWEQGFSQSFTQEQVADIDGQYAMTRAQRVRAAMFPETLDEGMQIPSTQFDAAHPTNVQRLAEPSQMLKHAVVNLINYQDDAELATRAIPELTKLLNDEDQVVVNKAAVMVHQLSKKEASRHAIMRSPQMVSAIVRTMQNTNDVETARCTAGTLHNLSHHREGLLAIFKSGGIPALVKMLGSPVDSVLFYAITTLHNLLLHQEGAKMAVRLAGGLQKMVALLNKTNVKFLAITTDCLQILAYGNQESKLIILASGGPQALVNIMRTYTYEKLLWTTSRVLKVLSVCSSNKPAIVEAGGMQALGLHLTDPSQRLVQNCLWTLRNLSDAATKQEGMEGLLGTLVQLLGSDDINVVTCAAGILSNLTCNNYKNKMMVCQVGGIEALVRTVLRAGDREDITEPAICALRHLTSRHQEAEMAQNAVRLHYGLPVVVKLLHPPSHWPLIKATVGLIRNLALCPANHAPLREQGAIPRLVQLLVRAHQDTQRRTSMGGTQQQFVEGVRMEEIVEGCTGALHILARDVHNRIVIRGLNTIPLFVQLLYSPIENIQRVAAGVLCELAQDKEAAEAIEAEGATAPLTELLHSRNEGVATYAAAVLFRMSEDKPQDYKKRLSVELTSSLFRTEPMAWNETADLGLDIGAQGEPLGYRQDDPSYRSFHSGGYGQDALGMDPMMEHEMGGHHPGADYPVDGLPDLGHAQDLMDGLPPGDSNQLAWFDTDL
# T3: B-cat-Halo (beta-catenin HaloTag construct expressed in HEK293 cells) (UniProt P35222 1-781)
# T3 sequence (looked up): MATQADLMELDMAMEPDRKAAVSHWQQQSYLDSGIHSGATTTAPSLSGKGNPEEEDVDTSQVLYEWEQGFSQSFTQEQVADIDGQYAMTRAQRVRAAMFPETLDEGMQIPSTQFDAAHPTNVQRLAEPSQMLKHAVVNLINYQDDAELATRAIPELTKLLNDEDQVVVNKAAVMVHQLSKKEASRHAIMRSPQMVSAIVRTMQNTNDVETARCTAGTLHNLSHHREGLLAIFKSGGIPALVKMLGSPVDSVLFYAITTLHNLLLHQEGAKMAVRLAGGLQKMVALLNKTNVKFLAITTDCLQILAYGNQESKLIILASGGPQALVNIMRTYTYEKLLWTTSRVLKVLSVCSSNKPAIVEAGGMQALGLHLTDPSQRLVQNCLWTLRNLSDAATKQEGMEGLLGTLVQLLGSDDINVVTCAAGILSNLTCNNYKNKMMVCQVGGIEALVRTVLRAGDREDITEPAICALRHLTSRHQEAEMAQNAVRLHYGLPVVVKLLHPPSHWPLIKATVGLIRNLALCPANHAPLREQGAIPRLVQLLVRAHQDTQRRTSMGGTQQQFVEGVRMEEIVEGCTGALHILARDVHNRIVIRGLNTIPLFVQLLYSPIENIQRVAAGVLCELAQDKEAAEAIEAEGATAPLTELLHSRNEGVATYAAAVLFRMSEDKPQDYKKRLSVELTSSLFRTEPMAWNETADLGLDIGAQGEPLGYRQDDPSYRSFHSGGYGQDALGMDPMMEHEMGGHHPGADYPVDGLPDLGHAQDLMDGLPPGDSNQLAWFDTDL
# Tests used:
# [1] = biological target: T1, B-cat-Halo (beta-catenin HaloTag …); assay: cell-based or functional assay
# [2] = biological target: T2, full-length beta-Catenin (Uniprot ID …); assay: fluorescence polarization competition; full-length beta-catenin, competitor 5FAM-TCF4(10-53) probe
# How it was run: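 Data fitted to 1:1 binding model with hill slope from duplicate reads taken after 60 minutes at 20° C. in the dark.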
# [3] = biological target: T3, B-cat-Halo (beta-catenin HaloTag …); assay: cell-based or functional assay; remark: listed apart in the source
NanoBRET Abs IC50 [1],Binder,also measured
6.1 µM,"Ac-[αAllylPro]D[tBuAla][B5(4)]D[TfeGA]AAFL[PyrS2″][3Thi][Bta]Q-NH2 (staple 1-4, 4-11; not fully specified (residue 9); also: later-eluting HPLC isomer peak) [I-2185]",–
–,"Ac-[αAllylPro]DI[B5(9)][βAsp]EAAFQ[S8]F[Bta]Q-NH2 (staple 1-4, 4-11, Stapled peptide) [I-673]",IC50 [2]: 5 µM
11.1 µM,"Ac-[αAllylPro]D[tBuAla][B5(4)]DDAAFN[PyrS2″][3Thi][34ClF]Q-NH2 (staple 1-4, 4-11; reading uncertain; also: printed as Ac-PL3-Asp-Npg-B5-Asp-Asp-Ala-Ala-Phe-Asn-PyrS2-3Thi-34C1F-Gln-NH2) [I-2182]",–
5 µM,"Ac-[αAllylPro]D[tBuAla][B5(4)]DDAAFL[PyrS2″][3Thi][34ClF]Q-NH2 (staple 1-4, 4-11; reading uncertain; also: printed as Ac-PL3-Asp-Npg-B5-Asp-Asp-Ala-Ala-Phe-Leu-PyrS2-3Thi-34C1F-Gln-NH2) [I-2183]",–
33.4 µM,"Ac-[αAllylPro]D[tBuAla][B5(4)]D[Phe(3-COOH)]SAFL[PyrS2(4)][3Thi][Bta]V-NH2 (staple 1-4, 4-11; reading uncertain; also: printed as Ac-PL3-Asp-Npg-B5-Asp-3COOHF-Ser-Ala-Phe-Leu-PyrS2-3Thi-BztA-Val-NH2) [I-2190]",–
29.5 µM,"Ac-[αAllylPro]D[tBuAla][B5(4)]D[Phe(3-COOH)][Me2Asn]AFL[PyrS2″][3Thi][Bta]V-NH2 (staple 1-4, 4-11) [I-2191]",–
16.1 µM,"Ac-[αAllylPro]D[tBuAla][B5(4)]D[Phe(3-COOH)]QAFL[PyrS2″][3Thi][Bta][tBuAla]-NH2 (staple 1-4, 4-11) [I-2192]",–
–,"5hexenyl-[αAllylPro]D[AllylGly][B5(4)]D[Phe(3-COOH)]AAFL[PyrS2″][Phe(2-CF3)][Bta]Q-NH2 (staple (positions not given here); not fully specified (bridges); printed as 5hexenyl-PL3-Asp-AllylGly-B5-Asp-3COOHF-Ala-Ala-Phe-Leu-PyrS2-2F3MeF-BztA-Gln-NH2; also: staple C=C reduced to CH2-CH2, staple partners not given here) [I-2529]",NanoBRET Abs IC50 (uM); Bcat-Halo / TCF4-Luc in HEK293 cells [3]: 33.2 µM
8.8 µM,"Ac-[αAllylPro]D[tBuAla][B5(4)]D[Phe(3-COOH)][Aib]AFL[PyrS2″][3Thi][Bta][tBuAla]-NH2 (staple 1-4, 4-11) [I-2194]",–
–,"Ac-[αAllylPro]N[Cha][B5(4)]DQK(mPEG4)AFL[PyrS2]F[Bta][MorphAsn]-NH2 (staple 1-4, 4-11) [I-2526]",NanoBRET Abs IC50 (uM); Bcat-Halo / TCF4-Luc in HEK293 cells [3]: > 20 µM
21 µM,"Ac-[αAllylPro]D[tBuAla][B5(4)]D[Phe(3-COOH)]SAFL[PyrS2″][3Thi][Bta][tBuAla]-NH2 (staple 1-4, 4-11) [I-2195]",–
–,"Ac-[αAllylPro]N[Cha][B5(4)]DQK(Ac)AFL[PyrS2]F[Bta][MorphAsn]-NH2 (staple 1-4, 4-11) [I-2522]",NanoBRET Abs IC50 (uM); Bcat-Halo / TCF4-Luc in HEK293 cells [3]: > 20 µM
–,"Ac-[αAllylPro]N[Cha][B5(4)]DQK(Morpholinoacetyl)AFL[PyrS2]F[Bta][MorphAsn]-NH2 (staple 1-4, 4-11) [I-2527]",NanoBRET Abs IC50 (uM); Bcat-Halo / TCF4-Luc in HEK293 cells [3]: > 20 µM
–,"Ac-[αAllylPro][d(βAsp)]I[B5(9)]DEAAFQ[S8]F[Bta]Q-NH2 (staple 1-4, 4-11, Stapled peptide) [I-669]",IC50 [2]: 0.451 µM
33.4 µM,"Ac-[αAllylPro]D[tBuAla][B5(4)]D[Phe(3-COOH)][Nle]AFL[PyrS2″][3Thi][Bta]V-NH2 (staple 1-4, 4-11) [I-2189]",–
